T1: human EpCAM expressed on cells (CHO cells stably transfected with human EpCAM); EpCAM-positive human tumor … (human, UniProt P16422 24-314)
T1 construct: whole, on cells; also called EpCAM-CHO; hEp-CHO 4-12B
T1 sequence (looked up): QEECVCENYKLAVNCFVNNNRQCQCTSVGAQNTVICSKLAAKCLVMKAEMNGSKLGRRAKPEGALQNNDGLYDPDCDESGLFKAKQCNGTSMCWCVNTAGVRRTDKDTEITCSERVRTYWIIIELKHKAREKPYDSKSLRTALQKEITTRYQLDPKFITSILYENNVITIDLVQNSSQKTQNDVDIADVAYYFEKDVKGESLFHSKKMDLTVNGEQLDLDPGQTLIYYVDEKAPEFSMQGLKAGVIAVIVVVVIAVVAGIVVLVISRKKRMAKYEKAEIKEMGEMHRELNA


Columns and labels:
[1] = target: T2, human CD3 on cells (CD3+ Jurkat cells; purified human CD3 positive T cells) (human, UniProt P07766 23-207); assay: competition flow cytometry on Jurkat cells
T2 construct: whole, on cells; CD3 is a multi-subunit complex
T2 sequence (P07766 23-207): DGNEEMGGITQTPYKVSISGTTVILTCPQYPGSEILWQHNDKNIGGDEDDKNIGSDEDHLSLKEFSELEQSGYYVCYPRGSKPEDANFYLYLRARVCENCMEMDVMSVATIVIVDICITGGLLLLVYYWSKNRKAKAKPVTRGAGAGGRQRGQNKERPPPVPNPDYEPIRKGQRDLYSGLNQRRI

[2] = target: T1, human EpCAM expressed on cells (CHO …); assay: competition flow cytometry on hEp-CHO 4-12B cells

| fold weaker binding affinity than cleaved AC1695 [1] | fold weaker binding affinity than cleaved AC1695 [2] | fold weaker binding affinity than cleaved AC1968 [2] | Binder |
| --- | --- | --- | --- |
| ~30 fold | ~100 fold |  | AC1886 anti-EpCAM×anti-CD3 ProTIA with two XTEN (XTEN292-RSR3058-anti-EpCAM-anti-CD3 tandem scFv-RSR3058-XTEN_867-6xHIS) (bispecific antibody, Uncleavable release segments RSR-3058; anti-EpCAM 4D5MOCB; hCD3.3) SPAGSPTSTEEGTSESATPESGPGTSTEPSEGSAPGTSESATPESGPGSEPATSGSETPGTSESATPESGPGSEPATSGSETPGTSESATPESGPGTSTEPSEGSAPGSPAGSPTSTEEGTSESATPESGPGSEPATSGSETPGTSESATPESGPGSPAGSPTSTEEGSPAGSPTSTEEGTSTEPSEGSAPGTSESATPESGPGTSESATPESGPGTSESATPESGPGSEPATSGSETPGSEPATSGSETPGSPAGSPTSTEEGTSTEPSEGSAPGTSTEPSEGSAPGGSAPTTGEAGEAAGATSAGATGPATSGSETPGTDIQMTQSPSSLSASVGDRVTITCRSTKSLLHSNGITYLYWYQQKPGKAPKLLIYQMSNLASGVPSRFSSSGSGTDFTLTISSLQPEDFATYYCAQNLEIPRTFGQGTKVEIKGATPPETGAETESPGETTGGSAESEPPGEGQVQLVQSGPGLVQPGGSVRISCAASGYTFTNYGMNWVKQAPGKGLEWMGWINTYTGESTYADSFKGRFTFSLDTSASAAYLQINSLRAEDTAVYYCARFAIKGDYWGQGTLLTVSSGGGGSDIQMTQSPSSLSASVGDRVTITCRASQDIRNYLNWYQQKPGKAPKLLIYYTSRLESGVPSRFSGSGSGTDYTLTISSLQPEDFATYYCQQGNTLPWTFGQGTKVEIKGATPPETGAETESPGETTGGSAESEPPGEGEVQLVESGGGLVQPGGSLRLSCAASGYSFTGYTMNWVRQAPGKGLEWVALINPYKGVSTYNQKFKDRFTISVDKSKNTAYLQMNSLRAEDTAVYYCARSGYYGDSDWYFDVWGQGTLVTVSSGTAEAASASGTTGEAGEAAGATSAGATGPSPGSPAGSPTSTEEGTSESATPESGPGTSTEPSEGSAPGSPAGSPTSTEEGTSTEPSEGSAPGTSTEPSEGSAPGTSESATPESGPGSEPATSGSETPGSEPATSGSETPGSPAGSPTSTEEGTSESATPESGPGTSTEPSEGSAPGTSTEPSEGSAPGSPAGSPTSTEEGTSTEPSEGSAPGTSTEPSEGSAPGTSESATPESGPGTSTEPSEGSAPGTSESATPESGPGSEPATSGSETPGTSTEPSEGSAPGTSTEPSEGSAPGTSESATPESGPGTSESATPESGPGSPAGSPTSTEEGTSESATPESGPGSEPATSGSETPGTSESATPESGPGTSTEPSEGSAPGTSTEPSEGSAPGTSTEPSEGSAPGTSTEPSEGSAPGTSTEPSEGSAPGTSTEPSEGSAPGSPAGSPTSTEEGTSTEPSEGSAPGTSESATPESGPGSEPATSGSETPGTSESATPESGPGSEPATSGSETPGTSESATPESGPGTSTEPSEGSAPGTSESATPESGPGSPAGSPTSTEEGSPAGSPTSTEEGSPAGSPTSTEEGTSESATPESGPGTSTEPSEGSAPGTSESATPESGPGSEPATSGSETPGTSESATPESGPGSEPATSGSETPGTSESATPESGPGTSTEPSEGSAPGSPAGSPTSTEEGTSESATPESGPGSEPATSGSETPGTSESATPESGPGSPAGSPTSTEEGSPAGSPTSTEEGTSTEPSEGSAPGTSESATPESGPGTSESATPESGPGTSESATPESGPGSEPATSGSETPGSEPATSGSETPGSPAGSPTSTEEGTSTEPSEGSAPGTSTEPSEGSAPGSEPATSGSETPGTSESATPESGPGTSTEPSEGSAPGHHHHHH |
|  |  | ~100 fold | AC1952 anti-human EpCAM×anti-human CD3 ProTIA with two XTEN, RSR-2295, uncleaved (bispecific antibody, XTEN-RSR2295-anti-EpCAM scFv-anti-CD3 (hCD3.9) scFv-RSR2295-XTEN-His6) SPAGSPTSTEEGTSESATPESGPGTSTEPSEGSAPGTSESATPESGPGSEPATSGSETPGTSESATPESGPGSEPATSGSETPGTSESATPESGPGTSTEPSEGSAPGSPAGSPTSTEEGTSESATPESGPGSEPATSGSETPGTSESATPESGPGSPAGSPTSTEEGSPAGSPTSTEEGTSTEPSEGSAPGTSESATPESGPGTSESATPESGPGTSESATPESGPGSEPATSGSETPGSEPATSGSETPGSPAGSPTSTEEGTSTEPSEGSAPGTSTEPSEGSAPGGSAPEAGRSANHTPAGLTGPATSGSETPGTDIQMTQSPSSLSASVGDRVTITCRSTKSLLHSNGITYLYWYQQKPGKAPKLLIYQMSNLASGVPSRFSSSGSGTDFTLTISSLQPEDFATYYCAQNLEIPRTFGQGTKVEIKGATPPETGAETESPGETTGGSAESEPPGEGQVQLVQSGPGLVQPGGSVRISCAASGYTFTNYGMNWVKQAPGKGLEWMGWINTYTGESTYADSFKGRFTFSLDTSASAAYLQINSLRAEDTAVYYCARFAIKGDYWGQGTLLTVSSGGGGSELVVTQEPSLTVSPGGTVTLTCRSSTGAVTTSNYANWVQQKPGQAPRGLIGGTNKRAPGTPARFSGSLLGGKAALTLSGVQPEDEAEYYCALWYSNLWVFGGGTKLTVLGATPPETGAETESPGETTGGSAESEPPGEGEVQLLESGGGLVQPGGSLKLSCAASGFTFNTYAMNWVRQAPGKGLEWVARIRSKYNNYATYYADSVKDRFTISRDDSKNTAYLQMNNLKTEDTAVYYCVRHGNFGNSYVSWFAYWGQGTLVTVSSGTAEAASASGEAGRSANHTPAGLTGPPGSPAGSPTSTEEGTSESATPESGPGTSTEPSEGSAPGSPAGSPTSTEEGTSTEPSEGSAPGTSTEPSEGSAPGTSESATPESGPGSEPATSGSETPGSEPATSGSETPGSPAGSPTSTEEGTSESATPESGPGTSTEPSEGSAPGTSTEPSEGSAPGSPAGSPTSTEEGTSTEPSEGSAPGTSTEPSEGSAPGTSESATPESGPGTSTEPSEGSAPGTSESATPESGPGSEPATSGSETPGTSTEPSEGSAPGTSTEPSEGSAPGTSESATPESGPGTSESATPESGPGSPAGSPTSTEEGTSESATPESGPGSEPATSGSETPGTSESATPESGPGTSTEPSEGSAPGTSTEPSEGSAPGTSTEPSEGSAPGTSTEPSEGSAPGTSTEPSEGSAPGTSTEPSEGSAPGSPAGSPTSTEEGTSTEPSEGSAPGTSESATPESGPGSEPATSGSETPGTSESATPESGPGSEPATSGSETPGTSESATPESGPGTSTEPSEGSAPGTSESATPESGPGSPAGSPTSTEEGSPAGSPTSTEEGSPAGSPTSTEEGTSESATPESGPGTSTEPSEGSAPGTSESATPESGPGSEPATSGSETPGTSESATPESGPGSEPATSGSETPGTSESATPESGPGTSTEPSEGSAPGSPAGSPTSTEEGTSESATPESGPGSEPATSGSETPGTSESATPESGPGSPAGSPTSTEEGSPAGSPTSTEEGTSTEPSEGSAPGTSESATPESGPGTSESATPESGPGTSESATPESGPGSEPATSGSETPGSEPATSGSETPGSPAGSPTSTEEGTSTEPSEGSAPGTSTEPSEGSAPGSEPATSGSETPGTSESATPESGPGTSTEPSEGSAPGHHHHHH |

Source: patent US12060424 (AMUNIX PHARMACEUTICALS, dated 2024)
